Source: the DeepSol protein solubility set

Test: soluble on expression in E. coli; label from the status in PepcDB or PDB records

Sequence | soluble on expression in E. coli
MGSSHHHHHHGGTGENLYFQGGSGMKSVFITGGNRGIGLETARQMGKLGYYVIISCRDEEKAKAAIEKVSAEGVKADYVIMDVVDESSVAKAAAEVSKKVNGVLDALINNAGKAAPSGDMSRVNLDEMRRCYEVNVIGTVCVTNHFLEMVKKSSAGRIVNVGSIKGSCQLEVTALSHTPYNCSKAALNMYTVNLASSLKDTNVKVNCAHPGWVKTDMGGPQAPLEVTEGAETSVYLATLPADGPTGGFFHKRDRLPW | soluble
MGSSHHHHHHGGTGENLYFQGGSGSNRKKVAYFHDPDIGSYYYGAGHPMKPQRIRMTHSLIVSYNLYKYMEVYRPHKSDVNELTLFHDYEYIDFLSSISLENYREFTYQLKRFNVGEATDCPVFDGLFQFQQSCAGASIDGASKLNHHCADICVNWSGGLHHAKMSEASGFCYINDIVLGILELLKYHARVMYIDIDVHHGDGVEEAFYVTHRVMTVSFHKFGDYFPGTGDITDVGVNHGKYYSVNVPLNDGMTDDAFVDLFKVVIDKCVQTYRPGAIIIQCGADSLTGDRLGRFNLTIKGHARCVEHVRSYNIPLLVLGGGGYTIRNVSRCWAYETGVVLNKHHEMPDQISLNDYYDYYAPDFQLHLQPSNIPNYNSPEHLSRIKMKIAENLRHIEHAPGVQFSYVPPDFFNSDIDDESDKNQYELKDDSGGGRAPGTRAKEHSTTHHLRRKNYDDDFFDLSDRDQSIVPY | not soluble
MGSSHHHHHHGKTIFVIVPTNEEQVAFLEALAKQDELNFDWQNPPTEPGQPVVILIPSDMVEWFLEMLKAKGIPFTVYVEEGGSENLYFQGGGGGGPKREEQMYMHIRKVYGDNIPEELLQRAKRQREAQDALTLTNMLRTPTPGQTSNALQNDLDPRALIELKSWNGH | soluble
MGSSHHHHHHGKTIFVIVPTNEEQVAFLEALAKQDELNFDWQNPPTEPGQPVVILIPSDMVEWFLEMLKAKGIPFTVYVEEGGSENLYFQGGGGGGVRYVQRPWFSPLGFMASSPTAYAPMMTCIALALIFPFRYQISEYFERQRDGVHVELRRKAVKYYAEMERMHRRQALVNLESIQDDNAPHRLSAVLSVESIQAGHLDQEYNYWYAHERDAIRAEKLMMEIRELKAKMPADSA | not soluble
MGSSHHHHHHGKTIFVIVPTNEEQVAFLEALAKQDELNFDWQNPPTEPGQPVVILIPSDMVEWFLEMLKAKGIPFTVYVEEGGSENLYFQGGGGGGYCAPTGRGADPKFYTPDAARKRDEQDKSYPVPKKLLKVRFLSDVGNTMPIAFVPLQREVEVLVGEPALAFYSAYNRSNRTLLGVSSYTIAPPEVTNYLNKIQCFCFEEQRFKPHELVEMPVFFYIDRDFLNDSMVNWLDEVIVNYTFFNLEKTKDYIFRPNAR | not soluble
MGSSHHHHHHMRVDGREKTELRHIHIHTNYLKHPEGSVLIEVGDTKVICSATIEERVPPFMRGEGKGWVTAEYAMIPRATEQRTIRESSKGKVTGRTMEIQRLIGRALRAVVDLEALGERTVWIDCDVIQADGGTRTASITGAYVAMVLAFEKLLQAEKVSKIPVKDYLAATSVGIVEEQGVVLDLNYAEDSKADVDMNVIMTGKGQFVEVQGTGEEATFSRAQLNELLDAAEQGIFQLIDIQKEALGDIVSHIE | soluble
MGSSHHHHHHSQDPMDYFNIKQNYYTGNFVQCLQEIEKFSKVTDNTLLFYKAKTLLALGQYQSQDPTSKLGKVLDLYVQFLDTKNIEELENLLKDKQNSPYELYLLATAQAILGDLDKSLETCVEGIDNDEAEGTTELLLLAIEVALLNNNVSTASTIFDNYTNAIEDTVSGDNEMILNLAESYIKFATNKETATSNFYYYEELSQTFPTWKTQLGLLNLHLQQRNIAEAQGIVELLLSDYYSVEQKENAVLYKPTFLANQITLALMQGLDTEDLTNQLVKLDHEHAFIKHHQEIDAKFDELVRKYDTSN | soluble
MGSSHHHHHHSSGLVPRGSHMASMDGKQGGMDGSKPAGPRDFPGIRLLSNPLMGDAVSDWSPMHEAAIHGHQLSLRNLISQGWAVNIITADHVSPLHEACLGGHLSCVKILLKHGAQVNGVTADWHTPLFNACVSGSWDCVNLLLQHGASVQPESDLASPIHEAARRGHVECVNSLIAYGGNIDHKISHLGTPLYLACENQQRACVKKLLESGADVNQGKGQDSPLHAVVRTASEELACLLMDFGADTQAKNAEGKRPVELVPPESPLAQLFLEREGASLPKPKP | soluble
MGSSHHHHHHSSGLVPRGSHMASNVKKFPEGFLWGVATASYQIEGSPLADGAGMSIWHTFSHTPGNVKNGDTGDVACDHYNRWKEDIEIIEKLGVKAYRFSISWPRILPEGTGRVNQKGLDFYNRIIDTLLEKGITPFVTIYHWDLPFALQLKGGWANREIADWFAEYSRVLFENFGDRVKNWITLNEPWVVAIVGHLYGVHAPGMRDIYVAFRAVHNLLRAHARAVKVFRETVKDGKIGIVFNNGYFEPASEKEEDIRAVRFMHQFNNYPLFLNPIYRGDYPELVLEFAREYLPENYKDDMSEIQEKIDFVGLNYYSGHLVKFDPDAPAKVSFVERDLPKTAMGWEIVPEGIYWILKKVKEEYNPPEVYITENGAAFDDVVSEDGRVHDQNRIDYLKAHIGQAWKAIQEGVPLKGYFVWSLLDNFEWAEGYSKRFGIVYVDYSTQKRIVKDSGYWYSNVVKNNGLED | soluble
MGSSHHHHHHSSGLVPRGSHMFLTRRDPPLSSFWTKVQYQRLKELNASGEQLEMGFSDALSRDRAFQGIEHQLMSQGKRHLEQLRTVKHRPALLELEEKLAKALHQQGFVQVVTPTIITKSALAKMTIGEDHPLFSQVFWLDGKKCLRPMLAPNLYTLWRELERLWDKPIRIFEIGTCYRKESQGAQHLNEFTMLNLTELGTPLEERHQRLEDMARWVLEAAGIREFELVTESSVVYGDTVDVMKGDLELASGAMGPHFLDEKWEIFDPWVGLGFGLERLLMIREGTQHVQSMARSLSYLDGVRLNIN | soluble
MGSSHHHHHHSSGLVPRGSHMMRKQRIVIKISGACLKQNDSSIIDFIKINDLAEQIEKISKKYIVSIVLGGGNIWRGSIAKELDMDRNLADNMGMMATIINGLALENALNHLNVNTIVLSAIKCDKLVHESSANNIKKAIEKEQVMIFVAGTGFPYFTTDSCAAIRAAETESSIILMGKNGVDGVYDSDPKINPNAQFYEHITFNMALTQNLKVMDATALALCQENNINLLVFNIDKPNAIVDVLEKKNKYTIVSK | soluble
MGSSHHHHHHSSGLVPRGSHMNESIVISLGGSVISGDPIDADYMKSFARILEASKYRRVGIVTGGGRTARSYISVLRKLNVNENVLDEIGIYATRMNALSMASLIPGSNPTIPFTVEDAVNLMNTYRFVVMGGTEPGHTTDTVAALLCERSATRTLINVTSVDGVYDMDPHRFANAKRFDRIGYREAIALSTKSSAGAGPNVFMDITALTIAMRSRIRVIVTSRDIDNLEKILKGDRAVSTFIDDDQRS | soluble
MGSSHHHHHHSSGLVPRGSHMTEIYTSVLSYRLLEGKAYSDADTRSLDRMMRSIDEFFSANPGYINFHIYRSYRTDSDVIFWYSSRNPDLMILAKERVQASMRPIAVSSFSSISIYDESPYNAMNKKLEDSLRLPPLRYFVAYPMSKTPDWYLLDFDTRKEIMHEHIKMALNHPDEKGIRSYTTYSFGIGDQEFVVLYEIPDIAAWSRVTEKLREARARKWIIKETPILLGRLVDAGDIAGFLL | soluble
MGSSHHHHHHSSGLVPRGSHMVASETLKTKKMEVQIKKNFPSVLQYTMTDGKVMYGQSKDVRTVEINGTNIELGDDDVTFKKVSDTEATYTLKVKDEAKKIDAVITVQITVKANQLHLNVTKIKNNLSEGIPEGNGVEENAIQTLSFPNQSLVSVRSSQENAQFTGARMSSNTQKPGDTNFAVTEDTNVTDSDYTYGFISGAGLSAGLWSNSEHDGTYVAAPVRGGSQNTRVYATTQQTGDATSLGLASAPWYYHRTVTDSKGKKYTVAETALPQMAVAIAGDENEDGAVNWQDGAIAYRDIMNNPYKSEEVPELVAWRIAMNFGSQAQNPFLTTLDNVKKVALNTDGLGQSVLLKGYGNEGHDSGHPDYGDIGQRLGGADDMNTMMEEGSKYGARFGVHVNASEMYPEAKAFSEDMVRRNSAGGLSYGWNWLDQGVGIDGIYDLASGSRVSRFADLSKEVGDNMDFIYLDVWGNLTSSGSEDSWETRKMSKMINDNGWRMTTEWGSGNEYDSTFQHWAADLTYGGYTSKGENSEVMRFLRNHQKDSWVGDYPQYGGAANAPLLGGYNMKDFEGWQGRNDYAAYIKNLYTHDVSTKFIQHFKVTRWVNNPLLTADNGNAAAVSDPNTNNGNEQITLKDSNGNVVVVSRGSNDTSSAAYRQRTITFNGVKVASGVVSAGDGSATGDESYLLPWMWDSFTGKLVKDSEQKLYHWNTKGGTTTWTLPDSWKNLSSVKVYQLTDQGKTNEQTVAVSGGKVTLTADAETPYVVYKGEAKQIQVNWSEGMHVVDAGFNGGSNTLTDNWTVSGSGKAEVEGDNNAMLRLTGKVDVSQRLTDLKAGQKYALYVGVDNRSTGDASVTVTSGGKVLATNSTGKSIAKNYIKAYGHNTNSNTENGSSYFQNMYVFFTAPENGDATVTLSHKSTDGAHTYFDDVRIVENQYSGITYEKDGTLKSLTNGFENNAQGIWPFVVSGSEGVEDNRIHLSELHAPFTRAGWDVKKMDDVLDGTWSVKVNGLTQKGTLVYQTIPQNVKFEAGAKYKVSFDYQSGSDDIYAIAVGQGEYSAGSVKLTNLKKALGETGKAEFELTGGVNGDSWFGIYSTATAPDLQGSTGNAQDFGGYKDFVLDNLKIERIESQTRTKAEAQDKVKEIRGKYDSKRAELSDAAWQQYQDTLVKARVLINKNGATAEDFTKAYDILVALDEYMKTAPGNESSDKYDVAADGSDELGGYTVATGSEEPTAGLPSEGPADLAQDGNDSTHWHTSWSENAVGNGTAWYQFNLNEPTTINGLRYLPRSGGMNANGKIKGYKITLTLADGTTKDVVTDAEFSTTTMWQKASFDAVENVTAVRLTVLSSAGQSDSQANKFASAAELRLTTDRE | soluble
MGSSHHHHHHSSGLVPRGSHMVTGKAFPYVVVTGIAMTTALATDAETTWKLLLDRQSGIRTLDDPFVEEFDLPVRIGGHLLEEFDHQLTRIELRRMGYLQRMSTVLSRRLWENAGSPEVDTNRLMVSIGTGLGSAEELVFSYDDMRARGMKAVSPLTVQKYMPNGAAAAVGLERHAKAGVMTPVSACASGAEAIARAWQQIVLGEADAAICGGVETRIEAVPIAGFAQMRIVMSTNNDDPAGACRPFDRDRDGFVFGEGGALLLIETEEHAKARGANILARIMGASITSDGFHMVAPDPNGERAGHAITRAIQLAGLAPGDIDHVNAHATGTQVGDLAEGRAINNALGGNRPAVYAPKSALGHSVGAVGAVESILTVLALRDQVIPPTLNLVNLDPEIDLDVVAGEPRPGNYRYAINNSFGFGGHNVAIAFGRY | soluble
MGSSHHHHHHSSGRENLYFQGHMCILMATRAHPDYELILISNRDEFLARKTHATCWHNNDFILSPYDLAKTSAEKQIFGTWSGINKEGKLATILNLKLDNEQNNTKSRSRGLLPFIFLSIHKADFEDWDNYKKFEGHYDGLKSTGDFNFFYGDVIKKQYKVIDSLGRTFDVLSSTCRKDLDSYMVVSNGKFYDSSSIPGQAWEKVKVARDSLENLVLENIESDEEKIISSCFQLASKSSLPSTISNPDVLQMVDPNVTMNTIYVPPLRRPPRDDLGASIPDGDYYGTRSQIVLLVSKDSTRVTFIERVLYSSDEDVRKYSVTSPKEEKRFKFKL | soluble
MGSSHHHHHHSSGRENLYFQGHMSHRDTLFSAPIARLGDWTFDERVAEVFPDMIQRSVPGYSNIISMIGMLAERFVQPGTQVYDLGCSLGAATLSVRRNIHHDNCKIIAIDNSPAMIERCRRHIDAYKAPTPVDVIEGDIRDIAIENASMVVLNFTLQFLEPSERQALLDKIYQGLNPGGALVLSEKFSFEDAKVGELLFNMHHDFKRANGYSELEISQKRSMLENVMLTDSVETHKARLHNAGFEHSELWFQCFNFGSLVALKAEDAA | soluble
